# Source: publication PMC6097307, “Development and characterization of an HPV18 detection kit using two novel HPV18 type-specific monoclonal antibodies” (Diagnostic Pathology, 2018)
# B1: monoclonal antibody 4C2 against HPV18 L1-VLP (antibody, V domains shown)
# VH: VKLQESGAELMKPGASVKISCKATGYTFRSYWIEWVKQRPGHGLEWIGEILPGSGITNYNEKFKGKATFTADTSSNTAYMQLSSLTSEDSAVYYCARHWDGNAMDYWGQGTTVTVSS
# VL: DIQLTQSPLSLPVSLGDQASISCRSSQSIVHSNGNTYLEWYLQKPGQSPKLLIYKVSNRFSGVPDRFSGSGSGTDFTLKISRVEAEDLGVYYCFQGSHVPLTFGAGTKLEI
# notes: IgG1; Coating antibody of the sandwich ELISA kit; also called mAb 4C2; source: mouse hybridoma (BALB/c spleen cells fused with SP2/0), ascites, purified on Protein G; copies: 2 + 2
# B2: monoclonal antibody 1B1 against HPV18 L1-VLP (antibody, V domains shown)
# VH: VQLQQSGGDLVKPGGSLKLSCAASGFTFSSYGMSWVRQTPDKRLEWVATISGGGSYTYYPDSVKGRFTISRDNAKNTLYLQMSSLKSEDTAMYYCSRHDSYGNYAAWFAYWGQGTTVTVS
# VL: DIQLTQSPALMAASPGEKVTITCSVSSSISSSNLHWYQQKSETSPKPWIYGTSNLASGVPVRFSGSGSGTSYSLTISSMEAEDAATYYCQQWSSYPFTFGSGTKLEI
# notes: IgG1; unconjugated in indirect ELISA and SPR; also called mAb 1B1; 1B1-HRP; source: mouse hybridoma (BALB/c spleen cells fused with SP2/0), ascites, purified on Protein G; copies: 2 + 2
# How the values were obtained:
# [1] = target: T1, HPV18 L1 virus-like particle (Human papillomavirus type 18, isolate …, UniProt P06794); experiment: SPR; BIACORE3000; L1-VLPs coupled to the chip (40 μg/ml, acetate pH 5.5, 4000 RU); antibodies at seven concentrations 0.3125 to 20 nM in PBS; binding 60 s, dissociation 500 s; settings: both partners purified
# T1 construct: major capsid protein L1 of human papillomavirus type 18, assembled into virus-like particles; The background says that 72 L1 pentamers make up the capsid; Used native, and denatured (0.2 M sodium carbonate pH 10.6, 10 mM DTT, boiled) in separate assays; also called HPV18 L1-VLP; HPV18 L1-VLPs
# T1 sequence (P06794 whole entry): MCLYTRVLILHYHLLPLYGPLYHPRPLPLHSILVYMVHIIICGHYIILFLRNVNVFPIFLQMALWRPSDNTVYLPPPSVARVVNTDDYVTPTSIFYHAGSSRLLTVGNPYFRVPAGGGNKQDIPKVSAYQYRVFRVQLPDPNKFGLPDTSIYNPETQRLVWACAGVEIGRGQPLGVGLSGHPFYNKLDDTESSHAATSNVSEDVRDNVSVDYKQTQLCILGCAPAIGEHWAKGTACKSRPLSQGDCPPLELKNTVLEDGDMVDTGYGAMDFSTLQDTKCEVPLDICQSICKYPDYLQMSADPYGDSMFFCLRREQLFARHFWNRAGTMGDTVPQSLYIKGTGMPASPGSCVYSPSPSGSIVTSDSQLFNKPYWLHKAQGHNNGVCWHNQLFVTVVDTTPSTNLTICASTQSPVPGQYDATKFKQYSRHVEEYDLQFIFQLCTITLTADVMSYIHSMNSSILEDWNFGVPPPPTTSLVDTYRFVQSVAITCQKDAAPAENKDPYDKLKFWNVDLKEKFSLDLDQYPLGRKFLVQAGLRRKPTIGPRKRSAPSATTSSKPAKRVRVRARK
# [2] = target: T1, HPV18 L1 virus-like particle; experiment: cell-based or functional assay
# [3] = target: T2, HPV16 L1 virus-like particle (Human papillomavirus type 16, isolate …, UniProt P03101); experiment: ELISA; indirect ELISA; native L1-VLPs of nine HPV types coated at 200 ng/well overnight at 4 °C; mAb 0.3 μg/ml, 1 h, room temperature; HRP goat anti-mouse IgG; settings: both partners purified
# T2 construct: major capsid protein L1 of human papillomavirus type 16, assembled into virus-like particles; Used native and denatured; also called HPV16 L1-VLP
# T2 sequence (P03101 whole entry): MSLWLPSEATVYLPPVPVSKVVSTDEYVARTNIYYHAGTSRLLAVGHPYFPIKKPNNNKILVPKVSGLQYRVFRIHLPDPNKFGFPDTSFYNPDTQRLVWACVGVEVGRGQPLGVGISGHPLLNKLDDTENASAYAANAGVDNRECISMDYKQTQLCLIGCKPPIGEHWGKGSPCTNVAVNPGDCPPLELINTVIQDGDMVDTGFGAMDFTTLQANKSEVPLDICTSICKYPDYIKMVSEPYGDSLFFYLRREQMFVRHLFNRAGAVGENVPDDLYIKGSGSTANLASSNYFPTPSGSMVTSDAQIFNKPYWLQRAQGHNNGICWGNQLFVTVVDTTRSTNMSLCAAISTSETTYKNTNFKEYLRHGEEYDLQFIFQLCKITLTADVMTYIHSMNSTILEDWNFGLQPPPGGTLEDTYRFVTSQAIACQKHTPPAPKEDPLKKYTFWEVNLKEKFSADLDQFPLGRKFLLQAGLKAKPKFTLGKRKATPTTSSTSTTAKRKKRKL
# [4] = target: T3, HPV11 L1 virus-like particle (Human papillomavirus type 11, isolate …, UniProt P04012); experiment: as above; settings: both partners purified
# T3 construct: major capsid protein L1 of human papillomavirus type 11, assembled into virus-like particles; Used native and denatured; also called HPV11 L1-VLP
# T3 sequence (P04012 whole entry): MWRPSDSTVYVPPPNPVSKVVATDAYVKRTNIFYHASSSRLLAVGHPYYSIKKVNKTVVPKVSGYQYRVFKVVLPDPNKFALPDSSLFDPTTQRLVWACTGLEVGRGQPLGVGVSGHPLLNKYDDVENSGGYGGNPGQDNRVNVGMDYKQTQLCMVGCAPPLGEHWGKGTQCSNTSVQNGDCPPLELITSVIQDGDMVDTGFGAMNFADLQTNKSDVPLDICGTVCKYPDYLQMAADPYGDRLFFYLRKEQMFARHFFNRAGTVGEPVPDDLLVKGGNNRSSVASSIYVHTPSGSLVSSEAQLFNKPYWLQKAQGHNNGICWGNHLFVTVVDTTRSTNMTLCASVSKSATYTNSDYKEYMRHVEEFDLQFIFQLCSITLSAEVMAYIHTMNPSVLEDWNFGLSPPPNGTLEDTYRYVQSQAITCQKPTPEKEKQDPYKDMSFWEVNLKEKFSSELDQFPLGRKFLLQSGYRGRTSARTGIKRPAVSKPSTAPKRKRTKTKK
# [5] = target: T4, HPV31 L1 virus-like particle (Human papillomavirus type 31, isolate …, UniProt P17388); experiment: as above; settings: both partners purified
# T4 construct: major capsid protein L1 of human papillomavirus type 31, assembled into virus-like particles; Used native and denatured; also called HPV31 L1-VLP; HPV31VLP
# T4 sequence (P17388 whole entry): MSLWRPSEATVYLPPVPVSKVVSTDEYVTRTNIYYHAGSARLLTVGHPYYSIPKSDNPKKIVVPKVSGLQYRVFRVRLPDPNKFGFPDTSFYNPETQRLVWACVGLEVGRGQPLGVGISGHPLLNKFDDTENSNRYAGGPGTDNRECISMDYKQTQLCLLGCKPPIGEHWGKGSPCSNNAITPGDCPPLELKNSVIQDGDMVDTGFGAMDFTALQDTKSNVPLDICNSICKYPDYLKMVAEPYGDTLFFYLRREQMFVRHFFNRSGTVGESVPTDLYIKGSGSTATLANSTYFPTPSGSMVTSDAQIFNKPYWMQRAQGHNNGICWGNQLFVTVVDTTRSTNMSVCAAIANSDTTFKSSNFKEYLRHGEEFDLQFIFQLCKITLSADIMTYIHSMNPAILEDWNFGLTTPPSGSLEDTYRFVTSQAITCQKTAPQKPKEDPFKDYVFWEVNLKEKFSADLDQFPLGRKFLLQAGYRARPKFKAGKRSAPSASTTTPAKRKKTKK
# [6] = target: T5, HPV45 L1 virus-like particle (Human papillomavirus type 45, isolate …, UniProt P36741); experiment: as above; settings: both partners purified
# T5 construct: major capsid protein L1 of human papillomavirus type 45, assembled into virus-like particles; Used native and denatured; also called HPV45 L1-VLP
# T5 sequence (P36741 whole entry): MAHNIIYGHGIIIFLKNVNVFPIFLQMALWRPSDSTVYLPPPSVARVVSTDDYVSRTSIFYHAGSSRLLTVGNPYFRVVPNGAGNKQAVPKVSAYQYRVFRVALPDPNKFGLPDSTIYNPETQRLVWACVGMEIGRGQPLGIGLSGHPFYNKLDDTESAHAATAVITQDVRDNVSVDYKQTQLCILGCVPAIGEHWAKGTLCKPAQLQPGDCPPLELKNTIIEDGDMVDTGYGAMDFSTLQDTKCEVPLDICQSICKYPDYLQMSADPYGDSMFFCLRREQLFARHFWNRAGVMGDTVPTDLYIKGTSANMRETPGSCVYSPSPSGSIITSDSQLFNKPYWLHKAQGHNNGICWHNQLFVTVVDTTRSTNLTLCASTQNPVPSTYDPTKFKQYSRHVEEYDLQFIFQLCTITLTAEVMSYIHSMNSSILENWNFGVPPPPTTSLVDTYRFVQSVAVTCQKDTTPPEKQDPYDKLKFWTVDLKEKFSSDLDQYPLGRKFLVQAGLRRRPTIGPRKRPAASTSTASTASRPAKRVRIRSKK
# [7] = target: T6, HPV58 L1 virus-like particle (Human papillomavirus type 58, isolate …, UniProt P26535); experiment: as above; settings: both partners purified
# T6 construct: major capsid protein L1 of human papillomavirus type 58, assembled into virus-like particles; Used native and denatured; also called HPV58 L1-VLP
# T6 sequence (P26535 whole entry): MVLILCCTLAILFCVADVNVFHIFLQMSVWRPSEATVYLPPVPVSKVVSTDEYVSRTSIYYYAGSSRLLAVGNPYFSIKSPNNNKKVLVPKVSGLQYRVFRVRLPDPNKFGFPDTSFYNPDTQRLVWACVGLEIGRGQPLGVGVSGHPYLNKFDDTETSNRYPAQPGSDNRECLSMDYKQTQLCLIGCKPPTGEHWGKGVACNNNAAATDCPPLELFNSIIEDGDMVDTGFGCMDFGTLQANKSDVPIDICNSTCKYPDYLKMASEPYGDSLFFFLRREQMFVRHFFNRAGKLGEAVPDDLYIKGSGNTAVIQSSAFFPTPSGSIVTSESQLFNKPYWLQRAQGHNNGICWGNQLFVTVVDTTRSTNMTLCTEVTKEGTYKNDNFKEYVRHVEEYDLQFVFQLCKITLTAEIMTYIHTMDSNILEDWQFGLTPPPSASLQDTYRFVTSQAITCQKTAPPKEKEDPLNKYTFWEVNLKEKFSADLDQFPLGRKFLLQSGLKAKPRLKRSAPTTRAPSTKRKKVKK
# [8] = target: T7, HPV33 L1 virus-like particle (Human papillomavirus type 33, isolate …, UniProt P06416); experiment: as above; settings: both partners purified
# T7 construct: major capsid protein L1 of human papillomavirus type 33, assembled into virus-like particles; Used native and denatured; also called HPV33 L1-VLP
# T7 sequence (P06416 whole entry): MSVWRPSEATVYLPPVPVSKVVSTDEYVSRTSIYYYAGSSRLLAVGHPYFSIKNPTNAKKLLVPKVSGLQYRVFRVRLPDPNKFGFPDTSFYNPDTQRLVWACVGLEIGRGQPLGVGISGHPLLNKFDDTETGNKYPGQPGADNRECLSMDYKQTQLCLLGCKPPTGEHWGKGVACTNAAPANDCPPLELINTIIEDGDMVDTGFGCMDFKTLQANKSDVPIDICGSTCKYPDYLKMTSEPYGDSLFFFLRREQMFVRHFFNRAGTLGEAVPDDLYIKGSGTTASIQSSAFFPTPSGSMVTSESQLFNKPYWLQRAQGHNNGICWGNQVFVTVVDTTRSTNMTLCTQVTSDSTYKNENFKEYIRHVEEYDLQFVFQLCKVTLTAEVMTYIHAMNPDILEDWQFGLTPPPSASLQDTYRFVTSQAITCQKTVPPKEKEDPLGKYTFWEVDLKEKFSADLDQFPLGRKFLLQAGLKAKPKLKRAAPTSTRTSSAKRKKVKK
# [9] = target: T2, HPV16 L1 virus-like particle; experiment: ELISA; indirect ELISA as a2 but L1-VLPs denatured (0.2 M sodium carbonate pH 10.6, 10 mM DTT, 30 min, boiled 5 min) before coating; mAb 0.3 μg/ml; settings: both partners purified
# [10] = target: T4, HPV31 L1 virus-like particle; experiment: as above; settings: both partners purified
# [11] = target: T5, HPV45 L1 virus-like particle; experiment: as above; settings: both partners purified
# [12] = target: T6, HPV58 L1 virus-like particle; experiment: as above; settings: both partners purified
# [13] = target: T7, HPV33 L1 virus-like particle; experiment: as above; settings: both partners purified
Binder,Kd [1],koff [1],kon [1],"IC50 of neutralisation of HPV18 pseudovirus (PsV18) infection of 293FT cells, fluorescence by flow cytometry [2]",binding result [3],binding result [4],binding result [5],binding result [6],binding result [7],binding result [8],binding result [9],binding result [10],binding result [11],binding result [12],binding result [13]
B1,7.45 nM,0.0178 s⁻¹,2.38e+06 M⁻¹ s⁻¹,10 µg/mL,no binding (tested: 0.3 μg/ml mAb),no binding (tested: 0.3 μg/ml mAb),no binding (tested: 0.3 μg/ml mAb),no binding (tested: 0.3 μg/ml mAb),no binding (tested: 0.3 μg/ml mAb),no binding (tested: 0.3 μg/ml mAb),,,,,
B2,2.06 nM,0.00192 s⁻¹,931000 M⁻¹ s⁻¹,0.039 µg/mL,,no binding (tested: 0.3 μg/ml mAb),,,,,no binding (tested: 0.3 μg/ml mAb),no binding (tested: 0.3 μg/ml mAb),no binding (tested: 0.3 μg/ml mAb),no binding (tested: 0.3 μg/ml mAb),no binding (tested: 0.3 μg/ml mAb)
